Data: the RNAGym collection of RNA variant scans (doi:10.7554/elife.80360)

B1: HDV Ribozyme (parent)
chain: GGCCGGCAUGGUCCCAGCCUCCUCGCUGGCGCCGGCUGGGCAACAUUCCGAGGGGACCGUCCCCUCGGUAAUGGCGAAUGGGACCCA

Variants of: B1
Experiment: self-cleavage, relative activity (ratio to wild type); higher = more cleavage; co-transcriptional
G10C G81U gave a self-cleavage of 0.196. Work on U27G G80C yielded a self-cleavage of 0.213. For U65G U72A, the self-cleavage was 0.739. C7A A43G gave a self-cleavage of 0. With G25C G55C the self-cleavage was 0.106. Variant U12C G52U has a self-cleavage of 0.35. Work on C18G C21U yielded a self-cleavage of 0.128. With G11C A42U the self-cleavage was 0.0536. Work on G35C G55A yielded a self-cleavage of 0.342. G59A A71C gave a self-cleavage of 0.743. Variant G25U A77G has a self-cleavage of 0.145. In the case of G25C C85U, the self-cleavage is reported as 0. C24A C44U showed a self-cleavage of 0.0831. In the case of C26U G82A, the self-cleavage is reported as 0.769. Work on G38U C58G yielded a self-cleavage of 0.306. For G29C C41A, the self-cleavage was 0. Variant A42C C84A has a self-cleavage of 0.17. Work on C15U C58A yielded a self-cleavage of 0.997. For G2A C62A, the self-cleavage was 0.137. C22A G28U showed a self-cleavage of 0.106. G73A G76U gave a self-cleavage of 0.906. For G39C G54U, the self-cleavage was 0.222. Work on C22A C57G yielded a self-cleavage of 0.543. In the case of G5U C75A, the self-cleavage is reported as 0.101. G5C G67U gave a self-cleavage of 0.248. G54C U65C gave a self-cleavage of 0.92. In the case of G6C G81U, the self-cleavage is reported as 0.0615. For C64U G82A, the self-cleavage was 0.487. G10A C85G gave a self-cleavage of 0.892. Variant U12A G76U has a self-cleavage of 0.906. Variant U9G U65A has a self-cleavage of 1.27. G34C G38U showed a self-cleavage of 0.0378. Variant A70C C84A has a self-cleavage of 0.646. U65A G81A gave a self-cleavage of 0.495. U9C A71U showed a self-cleavage of 0.969. Variant C21U C44G has a self-cleavage of 0.424. Variant C3G G54C has a self-cleavage of 0.674. U46C A87U gave a self-cleavage of 0.689. Work on U20C A77C yielded a self-cleavage of 0.0615. G6U G59A showed a self-cleavage of 0.544. For G17C C24U, the self-cleavage was 0.106. U20A G59U gave a self-cleavage of 0.222. Variant A87C has a self-cleavage of 1.01. Work on C44G U79C yielded a self-cleavage of 0.297. Variant A16C A51C has a self-cleavage of 0.612. Work on G35A A87G yielded a self-cleavage of 0.473. A51G G59A gave a self-cleavage of 0.787. For G31U U60C, the self-cleavage was 0.639. G54A C57A showed a self-cleavage of 0.818. For C58U C85G, the self-cleavage was 1.07. With G1A C49U the self-cleavage was 0. In the case of C15U C85G, the self-cleavage is reported as 0.831. In the case of A42U C66U, the self-cleavage is reported as 0.61. With G34A C86U the self-cleavage was 0.176. Work on C48A U72G yielded a self-cleavage of 0.525. Work on C14G C63G yielded a self-cleavage of 0.573. In the case of A42G C63G, the self-cleavage is reported as 0.504. G68C A78U showed a self-cleavage of 0.35. C66A G80U gave a self-cleavage of 0.304. Work on G25C U69G yielded a self-cleavage of 0. In the case of G40C G73U, the self-cleavage is reported as 0.233. U37G U79G gave a self-cleavage of 0.115. Variant U23A G25C has a self-cleavage of 0.208. Work on G40A A56G yielded a self-cleavage of 1.11. With G2A C44A the self-cleavage was 0.0875. For C44G C48A, the self-cleavage was 0.543. Variant C49U U72C has a self-cleavage of 0.554. U9C G10U showed a self-cleavage of 0.731. For C44U U65C, the self-cleavage was 0.61. In the case of C58A C61A, the self-cleavage is reported as 1.23. In the case of G35C A70U, the self-cleavage is reported as 0.138. With C18A G68C the self-cleavage was 0.212. U72A C86A gave a self-cleavage of 0.79. For U37C U46C, the self-cleavage was 0.914. C13U C21G showed a self-cleavage of 0.115. Work on G1U C84A yielded a self-cleavage of 0.408. U23A A83G showed a self-cleavage of 0.767. For G6C C26A, the self-cleavage was 0.369. C7G C58A showed a self-cleavage of 0.506. G1A G29C gave a self-cleavage of 0.181. Work on U9C A83U yielded a self-cleavage of 0.525. For U27C A83U, the self-cleavage was 0.465. U23C C75U showed a self-cleavage of 0.0739. Variant C66A U72G has a self-cleavage of 0.332. U12A G17U showed a self-cleavage of 0.108. C18G C58A showed a self-cleavage of 0.0573. C3G U23G gave a self-cleavage of 0.0791. In the case of U72C C86A, the self-cleavage is reported as 0.712. U23C G53C gave a self-cleavage of 0.927. Variant G2C C26A has a self-cleavage of 0.314. With C19A A42U the self-cleavage was 0.0216. G50U C62A showed a self-cleavage of 0.602. In the case of G29C G39C, the self-cleavage is reported as 0.277. In the case of U23A G82C, the self-cleavage is reported as 0.326. G6U C13A gave a self-cleavage of 0.0875. In the case of C19A U72G, the self-cleavage is reported as 0.095. G28C A43U gave a self-cleavage of 0.111. With C41G C75G the self-cleavage was 0.219. Variant G1U C44A has a self-cleavage of 0.479. In the case of G25U C62G, the self-cleavage is reported as 0.253. In the case of G10C G38A, the self-cleavage is reported as 0.0692. U27C A70G showed a self-cleavage of 0.739. Work on A8C G38C yielded a self-cleavage of 0.0978. G52C G80A showed a self-cleavage of 0.475. C32G C84G gave a self-cleavage of 0.0594. C15U C49A gave a self-cleavage of 0.623. In the case of C19G A87C, the self-cleavage is reported as 0.0849. Work on C36G A56C yielded a self-cleavage of 0.158. Work on C49U A87C yielded a self-cleavage of 1.05. For C15A A71C, the self-cleavage was 0.35. With G17U C18A the self-cleavage was 0.0978. In the case of C63G U72C, the self-cleavage is reported as 0.344. G29A G52A showed a self-cleavage of 0.0554. With A45C C75G the self-cleavage was 0.237. U37C G53U showed a self-cleavage of 1.13. G5C C49A gave a self-cleavage of 0.178. With G2A C41G the self-cleavage was 0.0645. G29A A83U showed a self-cleavage of 0.208. G2U G28U showed a self-cleavage of 0.0246. Work on G5C C30G yielded a self-cleavage of 0.0875. Work on C18U U37A yielded a self-cleavage of 0.0773. C44U C57G showed a self-cleavage of 0.612. For G31C G55A, the self-cleavage was 0.546. G74C C86A showed a self-cleavage of 0.201. With U46A C63G the self-cleavage was 0.723. G10C showed a self-cleavage of 0.935. C7U A8C gave a self-cleavage of 0.917. Variant C7A C75G has a self-cleavage of 0.225. G53C G81U showed a self-cleavage of 0.293. Work on G10A G11C yielded a self-cleavage of 0.256. Work on G10A G11U yielded a self-cleavage of 0.095. In the case of G6A A8C, the self-cleavage is reported as 0.323. G1A C63A gave a self-cleavage of 0.289. A16C G40A gave a self-cleavage of 0.65. G35U C75G gave a self-cleavage of 0.0378. With G28U G34U the self-cleavage was 0.117. A45G G59C gave a self-cleavage of 1.02. Variant G34C C61G has a self-cleavage of 0.231. C18U G38C showed a self-cleavage of 0.0297. G31A G50A showed a self-cleavage of 0.626. In the case of U23C A78G, the self-cleavage is reported as 0.739. In the case of G29C C57A, the self-cleavage is reported as 0.125. G17A A78C showed a self-cleavage of 0.268. With C75G A78C the self-cleavage was 0.151. G38U G81U gave a self-cleavage of 0.0545. In the case of G68A A71G, the self-cleavage is reported as 0.904. Variant G10U C19U has a self-cleavage of 0.144. In the case of C7A C21U, the self-cleavage is reported as 0. With U65C G82U the self-cleavage was 0.567. G29U A70C gave a self-cleavage of 0.0791. C14G U47C showed a self-cleavage of 0.604. In the case of G59U U65G, the self-cleavage is reported as 0.914. C3U U79G showed a self-cleavage of 0.489. In the case of G53U G76C, the self-cleavage is reported as 1.11. With U12G A83C the self-cleavage was 1.17. Work on G1C A87U yielded a self-cleavage of 0.104. Variant G31U C84U has a self-cleavage of 0.363. Work on G5U A42G yielded a self-cleavage of 0.249. With G39A G76C the self-cleavage was 0.57. With A42U C48U the self-cleavage was 0.506. Variant C4U G50A has a self-cleavage of 0.686. G29U U72A showed a self-cleavage of 0.218. In the case of C41G G59C, the self-cleavage is reported as 0.919. With G50A U79C the self-cleavage was 0.486. In the case of G39C U79C, the self-cleavage is reported as 0.125. With G17C C22A the self-cleavage was 0. C33U A70U showed a self-cleavage of 0.755.
